Publication PMC6641210 (2019)
Several values for one entry are separate records, joined by “and”; a condition that tells them apart may be missing. Identical values can stand only once. Like-named read-outs stand apart in the source and are kept apart here.

Key:
[1] = target: rabbit chimera of human IgG1 25G1 (human 25G1 variable regions on rabbit IgG heavy chain and rabbit kappa K2 light chain constant regions) (rabbit (Oryctolagus cuniculus)); experiment: SPR; antibody (5.3 nM) captured by its kappa light chain on a Protein L sensor chip, FcγRIIIA ECD injected as analyte; Biacore X100, 25°C, HBS-EP+ (0.01 M HEPES pH 7.4, 0.15 M NaCl, 3 mM EDTA, 0.05% P20); five-point titration in triplicate, 1:1 Langmuir binding model (kinetic)
[2] = target: ADCC-enhanced human IgG1 25G1 with S239D/I332E (human); experiment: SPR
[3] = target: ADCC-enhanced human IgG1 25G1 with S239D/I332E (human); experiment: SPR; Biacore X100, 25°C, HBS-EP+ (0.01 M HEPES pH 7.4, 0.15 M NaCl, 3 mM EDTA, 0.05% P20); antibody (5.3 nM) captured by its kappa light chain on a Protein L Sensor Chip, FcγRIIIA ECD injected 30 s at 30 µl/min; five-point titration in triplicate; kinetic fit, 1:1 Langmuir binding model
[4] = target: ADCC-enhanced human IgG1 25G1 with S239D/I332E (human); experiment: SPR; Biacore X100, 25°C, HBS-EP+; antibody captured on a Protein L Sensor Chip, five-point titration of FcγRIIIA ECD in triplicate; steady-state affinity model
[5] = target: chimeric rabbit IgG: variable regions of human 25G1 on rabbit IgG heavy and rabbit kappa (K2) light chain constant regions (human | rabbit (Oryctolagus cuniculus)); experiment: SPR; Biacore X100, 25°C, HBS-EP+ (0.01 M HEPES pH 7.4, 0.15 M NaCl, 3 mM EDTA, 0.05% P20); antibody (5.3 nM) captured by its kappa light chain on a Protein L Sensor Chip, FcγRIIIA ECD injected 30 s at 30 µl/min; five-point titration in triplicate; kinetic fit, 1:1 Langmuir binding model
[6] = target: chimeric rabbit IgG: variable regions of human 25G1 on rabbit IgG heavy and rabbit kappa (K2) light chain constant regions (human | rabbit (Oryctolagus cuniculus)); experiment: SPR; Biacore X100, 25°C, HBS-EP+; antibody captured on a Protein L Sensor Chip, five-point titration of FcγRIIIA ECD in triplicate; steady-state affinity model
[7] = target: T1, chimeric rabbit IgG: variable regions of human 25G1 on rabbit IgG heavy and rabbit kappa (K2) light chain constant regions (human | rabbit (Oryctolagus cuniculus)); experiment: SPR; Biacore X100, 25°C, HBS-EP+ (0.01 M HEPES pH 7.4, 0.15 M NaCl, 3 mM EDTA, 0.05% P20); antibody (5.3 nM) captured by its kappa light chain on a Protein L Sensor Chip, FcγRIIIA ECD injected 30 s at 30 µl/min; five-point titration in triplicate; kinetic fit, 1:1 Langmuir binding model; remark: listed apart in the source
[8] = target: T2, human IgG1 anti-Tissue Factor antibody 25G1 with a kappa light chain (human); experiment: as above
[9] = target: T1, chimeric rabbit IgG: variable regions …; experiment: SPR; Biacore X100, 25°C, HBS-EP+; antibody captured on a Protein L Sensor Chip, five-point titration of FcγRIIIA ECD in triplicate; steady-state affinity model; remark: listed apart in the source
[10] = target: T2, human IgG1 anti-Tissue Factor antibody …; experiment: as above
[11] = target: biotinylated rabbit IgG (Jackson 011-060-003) (rabbit); experiment: SPR; biotinylated rabbit IgG immobilised on a streptavidin Sensor Chip SA, titration of rabbit FcγRIIIA as analyte; steady-state affinity analysis, average of a triplicate
[12] = target: human IgG1 antibody with a kappa light chain (human anti-Tissue Factor antibody 25G1) (human); experiment: SPR; antibody (5.3 nM) captured by its kappa light chain on a Protein L sensor chip, FcγRIIIA ECD injected as analyte; Biacore X100, 25°C, HBS-EP+ (0.01 M HEPES pH 7.4, 0.15 M NaCl, 3 mM EDTA, 0.05% P20); five-point titration in triplicate, 1:1 Langmuir binding model (kinetic)
[13] = target: ADCC-enhanced human IgG1 (25G1) with the S239D/I332E mutations (human); experiment: as above
[14] = target: rabbit chimera of human IgG1 25G1 (human 25G1 variable regions on rabbit IgG heavy chain and rabbit kappa K2 light chain constant regions) (rabbit (Oryctolagus cuniculus)); experiment: as above; remark: listed apart in the source
[15] = target: human IgG1 antibody with a kappa light chain (human anti-Tissue Factor antibody 25G1) (human); experiment: as above; remark: listed apart in the source
[16] = target: ADCC-enhanced human IgG1 (25G1) with the S239D/I332E mutations (human); experiment: as above; remark: listed apart in the source
[17] = target: pig chimera of human IgG1 25G1 (human 25G1 variable regions on pig IgG1 heavy chain and pig kappa light chain constant regions) (pig (Sus scrofa)); experiment: as above
[18] = target: human IgG1 anti-Tissue Factor antibody 25G1 with a kappa light chain (human); experiment: SPR; Biacore X100, 25°C, HBS-EP+ (0.01 M HEPES pH 7.4, 0.15 M NaCl, 3 mM EDTA, 0.05% P20); antibody (5.3 nM) captured by its kappa light chain on a Protein L Sensor Chip, FcγRIIIA ECD injected 30 s at 30 µl/min; five-point titration in triplicate; kinetic fit, 1:1 Langmuir binding model; remark: listed apart in the source
[19] = target: chimeric pig IgG1: variable regions of human 25G1 on pig IgG1 heavy and pig kappa light chain constant regions (human | pig (Sus scrofa)); experiment: as above
[20] = target: ADCC-enhanced human IgG1 25G1 with S239D/I332E (human); experiment: SPR; remark: listed apart in the source
[21] = target: human IgG1 anti-Tissue Factor antibody 25G1 with a kappa light chain (human); experiment: SPR; Biacore X100, 25°C, HBS-EP+; antibody captured on a Protein L Sensor Chip, five-point titration of FcγRIIIA ECD in triplicate; steady-state affinity model; remark: listed apart in the source
[22] = target: chimeric pig IgG1: variable regions of human 25G1 on pig IgG1 heavy and pig kappa light chain constant regions (human | pig (Sus scrofa)); experiment: as above
[23] = target: T3, rabbit FcγRIIIA extracellular domain fragment (rabbit (Oryctolagus cuniculus)); experiment: SPR
T3 chain: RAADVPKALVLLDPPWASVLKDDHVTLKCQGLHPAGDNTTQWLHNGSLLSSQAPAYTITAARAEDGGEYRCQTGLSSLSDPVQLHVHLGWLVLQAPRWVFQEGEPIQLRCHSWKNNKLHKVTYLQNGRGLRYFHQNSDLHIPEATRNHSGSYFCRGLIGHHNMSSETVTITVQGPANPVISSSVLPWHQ

[24] = target: T4, pig FcγRIIIA extracellular domain fragment (pig, UniProt Q28942 20-209); experiment: SPR
T4 chain: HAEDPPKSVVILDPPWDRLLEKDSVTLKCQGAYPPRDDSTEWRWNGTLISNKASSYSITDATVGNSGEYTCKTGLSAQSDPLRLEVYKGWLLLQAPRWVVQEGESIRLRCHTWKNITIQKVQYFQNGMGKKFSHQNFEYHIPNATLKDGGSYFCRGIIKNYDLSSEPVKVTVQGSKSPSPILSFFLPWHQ

Molecule: human FcγRIIIA extracellular domain fragment, low affinity F158 variant (from UniProt P08637 17-208) (receptor)
- difference of kinetic KD between hIgG1 and rIgG [1]: 24%

Molecule: human FcγRIIIA-V158 (high affinity allele) extracellular domain fragment (receptor)
- Kd [2]: 1.18 nM
- koff [2]: 0.01 s⁻¹
- kon [2]: 1.01e+07 M⁻¹ s⁻¹

Molecule: rabbit FcγRIIIA extracellular domain fragment (receptor)
- Kd [3]: 148 nM
- koff [3]: 0.27 s⁻¹
- kon [3]: 1.8e+06 M⁻¹ s⁻¹
- Kd [4]: 133 nM

Molecule: human FcγRIIIA-F158 (low affinity allele) extracellular domain fragment (receptor)
- Kd [5]: 773 nM
- koff [5]: 0.14 s⁻¹
- kon [5]: 186000 M⁻¹ s⁻¹
- Kd [3]: 4.6 nM
- koff [3]: 0.05 s⁻¹
- kon [3]: 1.16e+07 M⁻¹ s⁻¹
- Kd [6]: 792 nM

B1: rabbit FcγRIIIA extracellular domain fragment (receptor)
chain: RAADVPKALVLLDPPWASVLKDDHVTLKCQGLHPAGDNTTQWLHNGSLLSSQAPAYTITAARAEDGGEYRCQTGLSSLSDPVQLHVHLGWLVLQAPRWVFQEGEPIQLRCHSWKNNKLHKVTYLQNGRGLRYFHQNSDLHIPEATRNHSGSYFCRGLIGHHNMSSETVTITVQGPANPVISSSVLPWHQ
modifications: not checked
- koff [7]: 0.34 s⁻¹
- kon [7]: 140000 M⁻¹ s⁻¹
- Kd [8]: 2710 nM
- koff [8]: 0.33 s⁻¹
- kon [8]: 122000 M⁻¹ s⁻¹
- Kd [9]: 1990 nM
- Kd [10]: 2170 nM
- Kd [11]: 1320 nM
- fold reduction of affinity relative to hFcγRIIIA [12]: 4 fold
- fold improvement of KD relative to hIgG1 [13]: > 10 fold
- Kd [14]: 2450 nM
- difference of kinetic KD between hIgG1 and rIgG [14]: 10%

B2: pig FcγRIIIA extracellular domain fragment (receptor)
chain: HAEDPPKSVVILDPPWDRLLEKDSVTLKCQGAYPPRDDSTEWRWNGTLISNKASSYSITDATVGNSGEYTCKTGLSAQSDPLRLEVYKGWLLLQAPRWVVQEGESIRLRCHTWKNITIQKVQYFQNGMGKKFSHQNFEYHIPNATLKDGGSYFCRGIIKNYDLSSEPVKVTVQGSKSPSPILSFFLPWHQ
- fold reduction of affinity relative to hFcγRIIIA [15]: 13 fold
- fold deterioration of kd relative to hIgG1 [16]: 7 fold
- fold improvement of KD relative to hIgG1 [16]: > 10 fold
- difference of kinetic KD between hIgG1 and rIgG [1]: 30%
- Kd [17]: 4730 nM
- Kd [18]: 8060 nM
- koff [18]: 0.05 s⁻¹
- kon [18]: 5920 M⁻¹ s⁻¹
- koff [19]: 0.28 s⁻¹
- kon [19]: 59700 M⁻¹ s⁻¹
- Kd [5]: 10900 nM
- koff [5]: 0.08 s⁻¹
- kon [5]: 7110 M⁻¹ s⁻¹
- Kd [3]: 726 nM
- koff [3]: 0.35 s⁻¹
- kon [3]: 480000 M⁻¹ s⁻¹
- Kd [20]: 638 nM
- Kd [21]: 14700 nM
- Kd [22]: 3970 nM
- Kd [6]: 13200 nM

B3: human IgG1 antibody with a kappa light chain (human anti-Tissue Factor antibody 25G1) (antibody)
chain 1: QVQLVQSGAEVKKPGASVKVSCKASGYTFRSYGISWVRQAPGQGLEWMGWVAPYSGNTNYAQKLQGRVTMTTDTSTSTAYMELRSLRSDDTAVYYCARDAGTYSPYGYGMDVWGQGTTVTVSS
chain 2: DIQMTQSPSTLSASVGDRVTITCRASHSIDSWLAWYQQKPGKAPKLLIYKASYLESGVPSRFSGSGSGTEFTLTISSLQPDDFATYYCQLFQSLPPFTFGGGTKVEIK
- Kd [23]: 2170 nM and 2710 nM
- Kd [24]: 8060 nM and 14700 nM
